Our source for the Kd values is paper PMC7194921.

In this series the target is SARS-CoV-2 N-NTD (WT) (SARS-CoV-2, UniProt P0DTC9 41-174). The series is described as follows: SPR.

The term Kd denotes the equilibrium constant for the complex coming apart. High values mean a looser complex, low ones a tighter complex.

Turning to AAGUUCGUUU (ssRNA) [viral RNA derived intergenic sequence], binding was characterised by a dissociation constant (Kd) of 140 µM.
